Experimental data taken from publication PMC5892879, “Structures of the Mycobacterium tuberculosis GlpX protein (class II fructose-1,6-bisphosphatase): implications for the active oligomeric state, catalytic mechanism and citrate inhibition” (Acta Crystallographica. Section D, Structural Biology, 2018).

Columns and labels:
Test in all cases: crystal structure
[1] = biological target: Mycobacterium tuberculosis class II fructose-1,6-bisphosphatase (GlpX protein), T84A variant (Mycobacterium tuberculosis) (UniProt P9WN21)
[2] = biological target: Mycobacterium tuberculosis class II fructose-1,6-bisphosphatase (GlpX protein), T84S variant (Mycobacterium tuberculosis) (UniProt P9WN21)
[3] = biological target: Mycobacterium tuberculosis class II fructose-1,6-bisphosphatase (GlpX protein), wild type (Mycobacterium tuberculosis) (UniProt P9WN21)

Substance: Mycobacterium tuberculosis class II fructose-1,6-bisphosphatase (GlpX protein), T84A variant (from UniProt P9WN21) (enzyme)
- stoichiometry N [1]: 4

Substance: Mycobacterium tuberculosis class II fructose-1,6-bisphosphatase (GlpX protein), T84S variant (from UniProt P9WN21) (enzyme)
- stoichiometry N [2]: 4

Substance: Mycobacterium tuberculosis class II fructose-1,6-bisphosphatase (GlpX protein), wild type (from UniProt P9WN21 35-362) (enzyme)
- stoichiometry N [3]: 4
